In US20060141532A1:

Molecular target: HLA-A2 Ag on A375SM melanoma cells (human)
Test: cell-based or functional assay

inhibition of lysis of A375SM melanoma cells by I-100-CTL and I-102-CTL (51Cr release assay): > 50%
Substance: anti-HLA-A2 mAb MA2.1 (antibody)
